Experiment [1] addresses Origin Recognition Complex (ORC). Briefly: pre-RC assembly on DNA beads, silver-stained gel band quantification. The following applies: ATP, low salt wash; read off a plot.
Experiment [2] deals with Origin Recognition Complex (ORC) (UniProt P54784). As to the kind of experiment: pull-down; pre-RC assay as a2 but with 3 mM ATP, WT Cdc6, low salt wash.

Consider “MCM2-7 (wild type) mutant Mcm5:E710R; Mcm5:E717R; Mcm5:E736R [S. cerevisiae] / Origin Recognition Complex (ORC) [not stated] chain 4 E710R, chain 4 E717R, chain 4 E736R”, for which the response in experiment [1] was 0.5.
Regarding “MCM2-7 (wild type) mutant Mcm5:K757D; Mcm5:R764E; Mcm5:R772E [S. cerevisiae] / Origin Recognition Complex (ORC) [not stated] chain 4 K757D, chain 4 R764E, chain 4 R772E”, the response in experiment [1] was determined as 0.25.
As to “MCM2-7 (wild type) mutant Mcm5:R721E; Mcm5:R735E [S. cerevisiae] / Origin Recognition Complex (ORC) [not stated] chain 4 R721E, chain 4 R735E”, the response in experiment [1] was found to be 0.28.
Turning to “MCM2-7-ΔC2, P29469 1-847; P24279 1-971; P30665 1-933; P29496 1-775; P53091 1-1017; P38132 1-845”, the complex formation compared to WT in experiment [2] came out at 65%.

For the origin of these results see paper PMC11695723.
